Assays:
[1] = target: γHV68 M11 Y97A (murine γ-herpesvirus 68) (UniProt P89884); test: ITC; Beclin 1 BH3D peptide titrated into M11 protein, 25 injections of 2 μL, 14 °C; 50 mM HEPES pH 7.5, 150 mM NaCl, 2 mM βME; independent model
[2] = target: γHV68 M11 L103A (murine γ-herpesvirus 68) (UniProt P89884); test: as above
[3] = target: γHV68 M11 L128A (murine γ-herpesvirus 68) (UniProt P89884); test: as above
[4] = target: γHV68 M11 M119A (murine γ-herpesvirus 68) (UniProt P89884); test: as above
[5] = target: γHV68 M11 F79A (murine γ-herpesvirus 68) (UniProt P89884); test: as above
[6] = target: M11 Y56A (murine γ-herpesvirus 68) (UniProt P89884); test: ITC; BH3D peptide titrated into M11 protein (25 injections of 2 μL); 14 °C; 50 mM HEPES pH 7.5, 150 mM NaCl, 2 mM βME; co-dialyzed overnight; independent model
[7] = target: M11 F48A (murine γ-herpesvirus 68) (UniProt P89884); test: as above
[8] = target: murine γ-herpesvirus 68 vBCL2 M11, wild type (murine γ-herpesvirus 68) (UniProt P89884); test: as above
[9] = target: M11 A63K (murine γ-herpesvirus 68) (UniProt P89884); test: as above

Q: With Beclin 1 BH3D peptide as the substance, how does the Ka [1] read?
A: The Ka was 920000 M⁻¹.

Q: What about the Kd [1] of the same substance?
A: The Kd was 1130 nM.

Q: And the Ka [2]?
A: The Ka was 417000 M⁻¹.

Q: What about the Kd [2] of the same substance?
A: The Kd was 2400 nM.

Q: And the Ka [3]?
A: The Ka was 1.12e+06 M⁻¹.

Q: What about the Kd [3] of the same substance?
A: Its Kd is 900 nM.

Q: What about the Ka [4] of the same substance?
A: The Ka was 527000 M⁻¹.

Q: What about the Kd [4] of the same substance?
A: The Kd was 1900 nM.

Q: What about the Ka [5] of the same substance?
A: Its Ka is 4.6e+06 M⁻¹.

Q: And the Kd [5]?
A: Its Kd is 2200 nM.

Q: And the Ka [6]?
A: Its Ka is 300000 M⁻¹.

Q: What about the Kd [6] of the same substance?
A: The Kd was 3380 nM.

Q: What about the dH [6] of the same substance?
A: Its dH is -9.03 kcal/mol.

Q: And the Ka [7]?
A: Its Ka is 158000 M⁻¹.

Q: And the Kd [7]?
A: Its Kd is 63400 nM.

Q: And the dH [7]?
A: Its dH is -8.63 kcal/mol.

Q: And the Ka [8]?
A: The Ka was 1.2e+06 M⁻¹.

Q: What about the Kd [8] of the same substance?
A: The Kd was 840 nM.

Q: What about the dH [8] of the same substance?
A: The dH was -12.8 kcal/mol.

Q: And the Ka [9]?
A: The Ka was 160000 M⁻¹.

Q: What about the Kd [9] of the same substance?
A: Its Kd is 6500 nM.

Q: What about the dH [9] of the same substance?
A: The dH was -9.49 kcal/mol.
